From patent publication US20150267232A1, “IN VIVO AND IN VITRO CARBENE INSERTION AND NITRENE TRANSFER REACTIONS CATALYZED BY HEME ENZYMES” (California Institute of Technology, priority 2012, published 2015)
Changes are numbered by the printed parent chain. Names may count otherwise.

Experiments:
Assay type in all cases: biochemical
[1] = P450BM3 compilation plate screen (GC, cyclopropane peaks); settings: P450BM3 variants; for ee (cis): (R,S)-(S,R), chiral β-CDX GC; for de: diastereomeric excess = ([cis] − [trans])/([cis] + [trans]); for Absolute activity: sum of the area of the cyclopropane peaks over the area of the internal standard
[2] = Small-scale anaerobic C—H amination with purified enzymes, azide 1; settings: catalyst loading 0.5 mol %; NADPH; anaerobic
Procedure: Activities are presented in TTN. […] Yields and enantioselectivies determined by HPLC analysis. * (S−R)/(S+R). nd=not determined.
Enzymes used as purified catalysts were expressed as previously described (Lewis, J. C. et al., Proc. Natl. Acad. Sci. U.S.A. 106, 16550-16555 (2009)), and were purified by anion-exchange chromatography (for holoenzymes) or Ni-NTA chromatography (for isolated heme domains). Concentrations of P450 or P411 enzymes were determined as previously reported (Omura, T. & Sato, R., J. Biol. Chem. 239, 2370-2378 (1964); Vatsis, K. P. et al., J. Inorg. Biochem. 91, 542-553 (2002)). Small-scale reactions (400 μL) were conducted in 2 mL crimp vials containing degassed buffer (0.1 M potassium phosphate pH 8.0), enzyme (0.1-0.5% catalyst loading) and oxygen depletion system (10× stock solution containing 14,000 U/mL catalase, 1,000 U/mL glucose oxidase dissolved in 0.1 M KPi pH 8.0). Enzyme (P450 or P411) solution and oxygen depletion mixture were added to the vial with a small stir bar before crimp-sealing. […] Reactions were stirred at room temperature for 24 h under positive argon pressure.
Small-scale reactions (400 μL) were conducted in 2 mL crimp vials (Agilent Technologies, San Diego, Calif.) containing buffer (0.1 M potassium phosphate pH 8.0), enzyme (0.1-0.5% catalyst loading) and oxygen depletion system (10× stock solution containing 14,000 U/mL catalase, 1,000 U/mL glucose oxidase dissolved in 0.1 M KPi pH 8.0). Enzyme (P450 or P411) solution and oxygen depletion mixture were added to the vial with a small stir bar before crimp-sealing. […] In the meantime, the headspace of the sealed 2 mL reaction vial with the P450 solution was made anaerobic by flushing argon over the protein solution (with no bubbling). The buffer/reductant/glucose solution (270 μL) was syringed into the reaction vial with continuous argon purge of the vial headspace. An arylsulfonyl azide solution in DMSO (10 μL, 80 mM) was added to the reaction vial via a glass syringe, and the reaction was left stirring for 24 h at room temperature under positive argon pressure. […] Reactions were quenched by adding 30 μL 3 M HCl under argon. To the vials were then added acetonitrile (430 uL) and internal standard (o-toluenesulfonamide 10 mM in 50% acetonitrile 50% water, 1 mM final concentration). This mixture was then transferred to a microcentrifuge tube, and centrifuged at 17,000×g for 10 minutes. A portion (20 μL) of the supernatant was then analyzed by HPLC. For LC-MS analysis, the quenched reaction mixture was extracted twice with ethyl acetate (2×350 μL), dried under a light argon stream and resuspended in 50% water-acetonitrile (100 μL). For chiral HPLC the reactions were extracted as above with ethyl acetate, dried and resuspended in DMSO (100 μL) and then C18 purified as described above. The C18 purified material was dried, and resuspended in acetonitrile, and then injected onto the chiral HPLC system for analysis. Sultam formation was quantified comparison of integrated peak areas of internal standard and sultam at 220 nm to a calibration curve made using synthetically produced sultam and internal standard.
Purified enzymes were screened for activity in small scale reactions (400 μL) under anaerobic conditions as described above. Reactions were carried out using 0.5% mol of enzyme (10 μM) with respect to the triethylsulfonyl azide substrate 1 (2 mM). Standard reaction conditions described above were employed. Diethyl benzosultam product 3 (FIG. 18) was analyzed and quantified by reversed-phase HPLC (see above).
Small-scale reactions (400 μL total volume) were set up and worked up. Control reactions were performed with both the holoenzyme (BM3 with covalently linked reductase domain) and the isolated heme domain. […] Reactions of the complete system with heme domain (CS heme) included 2 mM Na2S2O4 rather than NADPH unless otherwise indicated in the table. […]

[3] = N—H insertion, aniline with ethyl diazo acetate (EDA); settings: protein 10 uM, EDA 8.5 mM, aniline 20 mM, Na2S2O4 10 mM, 12 h; for % Yield: product 4.3
Text: We have found a variety of P450 variants to be general catalysts for carbenoid N—H insertion. We combined aniline with EDA in the presence of a reductant (Na2S2O4) under argon atmosphere and tested the mixture with seven P450BM3 variants previously identified as competent catalysts for cyclopropanation (Coelho, P. et al., Science. 2013, 339, 307-310). In choosing this set of P450s, we hypothesized that cyclopropanation activity could correlate with ability to generate the iron-carbenoid intermediate that is also necessary for N—H insertion. Whereas wild type BM3 (WT-BM3 (SEQ ID NO:1), Table 20, entry 1) provided only trace amounts of the desired product (4.3), a few variants gave 4.3 in good yields after 12 h at room temperature. In particular, variant H2-5-F10 which is derived from a thermostable P450BM3 lineage (Lewis, J. C. et al. ChemBioChem, 2010, 11, 2502-2505) and contains 15 mutation from WT-BM3 (SEQ ID NO:1), formed 4.3 in 47% yield and 473 turnovers (TTN) using 0.1% protein relative to EDA (entry 7). […] In contrast, when 1 mol % of the isolated hemin prosthetic group was used as catalyst, the single and double insertion products were produced in a 3.5 to 1 ratio (with a total product yield of 51%).
A representative procedure for P450-catalyzed N—H insertion is as follows. To an unsealed crimp vial, 60 μL of a P450 solution (67 or 133 μM) was added and the vial was sealed. A 12.5 mM solution of sodium dithionite in phosphate buffer (0.1 M, pH=8.0) was degassed by bubbling with argon in a 6 mL crimp-sealed vial. The headspace of the 2 mL vials containing P450 solution were flushed with argon (no bubbling). The buffer/dithionite solution (360 μL) was then added to each reaction vial via syringe, and the gas lines were disconnected from the vials. 10 μL of an 800 mM stock of aniline was added via a glass syringe, followed by 10 μL of a 340 mM stock of EDA (both stocks in MeOH). The reaction vials were then placed in a tray on a plate shaker and left to shake at 40 rpm. The final concentrations of the reagents were typically: 20 mM aniline, 8.5 mM EDA, 10 mM Na2S2O4, and 10 or 20 μM P450. After 12 h at 25° C., the vials were removed from the shaker and uncapped and 1 mL of cyclohexane was added, followed by 20 μL of a 20 mM solution of phenethyl alcohol (internal standard). The mixture was transferred to a 1.5 mL Eppendorf tube and vortexed and centrifuged (13,000×g, 1 min.). The organic layer was dried over sodium sulfate if necessary then analyzed by GC, with comparison to an authentically prepared sample that has been verified by proton NMR ([…], Varian, CDCl3).
Substitution is well-tolerated on the aniline partner on both the ortho and para positions. Reactions were analyzed by a Shimadzu GC with FID detector and J&W HP-5 column (30 m×0.32 mm, 0.25 μm film) and calibrated to an independently prepared sample of each product using phenethyl alcohol as internal standard. Reaction of aniline and EDA was also performed in milligram scale without any organic cosolvent to provide 4.3 in 65% isolated yield.
Calibration curves were plotted as follows. Yields of N—H insertion products were determined using calibration curves made with independently synthesized standards that have been verified by proton NMR, with comparison to known literature data (Baumann, L. K. et al. Organometallics. 2007, 26, 3995-4002; Anding, B. J. et al. Organometallics. 2013, 32, 2599-2607). Two stock solutions of product were made at 160 mM and 40 mM. To four or five samples containing 380 μL of buffer, product was added from either of the stock solutions such at a final concentration of 0.5-8.0 mM in 400 μL was obtained. 20 μL of internal standard was added to each eppendorf tube, then 1 mL of cyclohexane was added and the tubes were vortexed and centrifuged (13,000 ×g, 30 seconds). The organic layer was then analyzed by GC. The ratio of the areas under the internal standard and product peaks were plotted against the concentration for each solution. […]

B1: CYP102A3: CYP102A3, related P450 from Bacillus subtilis (protein, UniProt O08336 1-1054, looked up)
Bifunctional cytochrome …: MKQASAIPQPKTYGPLKNLPHLEKEQLSQSLWRIADELGPIFRFDFPGVSSVFVSGHNLVAEVCDEKRFDKNLGKGLQKVREFGGDGLFTSWTHEPNWQKAHRILLPSFSQKAMKGYHSMMLDIATQLIQKWSRLNPNEEIDVADDMTRLTLDTIGLCGFNYRFNSFYRDSQHPFITSMLRALKEAMNQSKRLGLQDKMMVKTKLQFQKDIEVMNSLVDRMIAERKANPDENIKDLLSLMLYAKDPVTGETLDDENIRYQIITFLIAGHETTSGLLSFAIYCLLTHPEKLKKAQEEADRVLTDDTPEYKQIQQLKYIRMVLNETLRLYPTAPAFSLYAKEDTVLGGEYPISKGQPVTVLIPKLHRDQNAWGPDAEDFRPERFEDPSSIPHHAYKPFGNGQRACIGMQFALQEATMVLGLVLKHFELINHTGYELKIKEALTIKPDDFKITVKPRKTAAINVQRKEQADIKAETKPKETKPKHGTPLLVLFGSNLGTAEGIAGELAAQGRQMGFTAETAPLDDYIGKLPEEGAVVIVTASYNGAPPDNAAGFVEWLKELEEGQLKGVSYAVFGCGNRSWASTYQRIPRLIDDMMKAKGASRLTAIGEGDAADDFESHRESWENRFWKETMDAFDINEIAQKEDRPSLSITFLSEATETPVAKAYGAFEGIVLENRELQTAASTRSTRHIELEIPAGKTYKEGDHIGILPKNSRELVQRVLSRFGLQSNHVIKVSGSAHMAHLPMDRPIKVVDLLSSYVELQEPASRLQLRELASYTVCPPHQKELEQLVSDDGIYKEQVLAKRLTMLDFLEDYPACEMPFERFLALLPSLKPRYYSISSSPKVHANIVSMTVGVVKASAWSGRGEYRGVASNYLAELNTGDAAACFIRTPQSGFQMPNDPETPMIMVGPGTGIAPFRGFIQARSVLKKEGSTLGEALLYFGCRRPDHDDLYREELDQAEQDGLVTIRRCYSRVENEPKGYVQHLLKQDTQKLMTLIEKGAHIYVCGDGSQMAPDVERTLRLAYEAEKAASQEESAVWLQKLQDQRRYVKDVWTGM
Question: For B1, which “ee (cis)” value [1] is on record?
Answer: −8

Question: What about the de [1] of the same molecule?
Answer: −74

Question: What about the Absolute activity [1] of the same molecule?
Answer: 0.004053

B2: BM3-CIS: 9-10A TS + F87V, T268A (protein, listed as Bacillus megaterium)
chain: TIKEMPQPKTFGELKNLPLLNTDKPVQALMKIADELGEIFKFEAPGRVTRYLSSQRLIKEACDESRFDKNLSQALKFARDFAGDGLVTSWTHEKNWKKAHNILLPSFSQQAMKGYHAMMVDIAVQLVQKWERLNADEHIEVSEDMTRLTLDTIGLCGFNYRFNSFYRDQPHPFIISMVRALDEVMNKLQRANPDDPAYDENKRQFQEDIKVMNDLVDKIIADRKARGEQSDDLLTQMLNGKDPETGEPLDDGNIRYQIITFLIAGHEATSGLLSFALYFLVKNPHVLQKVAEEAARVLVDPVPSYKQVKQLKYVGMVLNEALRLWPTAPAFSLYAKEDTVLGGEYPLEKGDEVMVLIPQLHRDKTVWGDDVEEFRPERFENPSAIPQHAFKPFGNGQRACIGQQFALHEATLVLGMMLKHFDFEDHTNYELDIKETLTLKPKGFVVKAKSKKIPLGGIPSPSTEQSAKKVRKKAENAHNTPLLVLYGSNMGTAEGTARDLADIAMSKGFAPQVATLDSHAGNLPREGAVLIVTASYNGHPPDNAKQFVDWLDQASADEVKGVRYSVFGCGDKNWATTYQKVPAFIDETLAAKGAENIADRGEADASDDFEGTYEEWREHMWSDVAAYFNLDIENSEDNKSTLSLQFVDSAADMPLAKMHGAFSTNVVASKELQQPGSARSTRHLEIELPKEASYQEGDHLGVIPRNYEGIVNRVTARFGLDASQQIRLEAEEEKLAHLPLAKTVSVEELLQYVELQDPVTRTQLRAMAAKTVCPPHKVELEALLEKQAYKEQVLAKRLTMLELLEKYPACEMKFSEFIALLPSIRPRYYSISSSPRVDEKQASITVSVVSGEAWSGYGEYKGIASNYLAELQEGDTITCFISTPQSEFTLPKDPETPLIMVGPGTGVAPFRGFVQARKQLKEQGQSLGEAHLYFGCRSPHEDYLYQEELENAQSEGIITLHTAFSRMPNQPKTYVQHVMEQDGKKLIELLDQGAHFYICGDGSQMAPAVEATLMKSYADVHQVSEADARLWLQQLEEKGRYAKDVWAG
modifications: cytochrome P450NADPH-P-450 reductase precursor, cytochrome P450 (BM3), CYP102A1
notes: 9-10A TS + F87V, T268A
Question: Which “TTN (C—H amination product 3)” value [2] does the source give for B2 here?
Answer: 9

Question: And the TTn [3]?
Answer: 363

Question: And the “% Yield” value [3]?
Answer: 36%

B3: H2-4-D4: 9-10A TS + F87V, L75A, M177A, L181A, T268A, L437A (protein, listed as Bacillus megaterium)
chain: B2 chain with L75A, M177A, L181A, L437A
modifications: cytochrome P450NADPH-P-450 reductase precursor, cytochrome P450 (BM3), CYP102A1
notes: 9-10A TS + F87V, L75A, M177A, L181A, T268A, L437A
Question: Which “ee (cis)” value [1] does the source give for B3 here?
Answer: −84

Question: And the de [1]?
Answer: 57

Question: And the Absolute activity [1]?
Answer: 0.05244

Question: What about the TTn [3] of the same molecule?
Answer: 340

Question: And the “% Yield” value [3]?
Answer: 34%
